According to paper doi:10.1101/784462, “Rv3722c governs aspartate-dependent nitrogen metabolism in Mycobacterium tuberculosis” (bioRxiv, 2019):

Biological target: the molecule itself
Assay: crystal structure; Rv3722c (~40 mg/mL) co-crystallised with 5 mM L-glutamic acid (PDB 6U78) or 10 mM L-kynurenine (PDB 6U7A), sitting drop vapor diffusion at 17 °C

B1: Rv3722c (aspartate aminotransferase of Mycobacterium tuberculosis) (enzyme)
chain: SFDSLSPQELAALHARHQQDYAALQGMKLALDLTRGKPSAEQLDLSNQLLSLPGDDYRDPEGTDTRNYGGQHGLPGLRAIFAELLGIAVPNLIAGNNSSLELMHDIVAFSMLYGGVDSPRPWIQEQDGIKFLCPVPGYDRHFAITETMGIEMIPIPMLQDGPDVDLIEELVAVDPAIKGMWTVPVFGNPSGVTYSWETVRRLVQMRTAAPDFRLFWDNAYAVHTLTLDFPRQVDVLGLAAKAGNPNRPYVFASTSKITFAGGGVSFFGGSLGNIAWYLQYAGKKSIGPDKVNQLRHLRFFGDADGVRLHMLRHQQILAPKFALVAEVLDQRLSESKIASWTEPKGGYFISLDVLPGTARRTVALAKDVGIAVTEAGASFPYRKDPDDKNIRIAPSFPSVPDLRNAVDGLATCALLAATETLLNQGLASSAPNVR
notes: also called AspAT; not shown: His6, C-terminal, cleaved
binding result: binds
